The source of these data is patent US10829756B2, “Discovery of enzymes from the alpha-keto acid decarboxylase family” (priority 2015, dated 2020).

Assay in all cases: Steady-state kinetics of 2-ketoacid decarboxylase (ADH/NADH coupled)
Assay type in all cases: biochemical
Details in all cases: other: pH 7.5, 21° C.

The test system of one data set is CC(=O)C(=O)O. The procedure:
(§1) For the native KIVD and KIVD_VLV mutant, 2 ml overnight cultures of XL1B cells were transformed with pQE9 containing N-terminal his-tagged KIVD enzymes and grown in Terrific Broth (BP biomedical, Cat#3046-042) with 50 μg/mL of carbenicillin. (Fisher scientific, Cat# BP2648-5) For the GEOs, 2 ml overnight cultures of BLR cells were transformed with pet29b+ plasmid containing N-terminal his-tagged GEOs, and grown in Terrific Broth with 50 μg/mL of kanamycin. (Fisher scientific, Cat# BP906-5) These cultures were diluted 1:1000 in 500 mL of Terrific Broth with 1 mM MgSO4, 1% glucose, and 50ug/mL of corresponding antibiotics, then grown at 37° C. for 24 hours. Cultures were pelleted down at 4700 rpm for 10 mins and resuspended in auto-induction media (LB broth, 1 mM MgSO4, 0.1 mM TPP, 1×NPS, and 1×5052) for induction at 18° C. for 34 hours. At the end of induction, cells were centrifuged (4700 rpm, 4° C., 20 minutes), supernatant was removed, and cells were resuspended in 40 mL lysis buffer (100 mM Hepes pH 7.5, 100 mM NaCl, 10% glycerol, 0.1 mM TPP, 1 mM MgSO4, 10 mM Imidazole, 1 mM TCEP) and 1 mM PMSF) and sonicated for 2 minutes. Lysed cells were centrifuged at 4700 rpm at 4° C. for 60 mins to remove cell debris. Supernatant was loaded on gravity flow column with 700 μl of cobalt slurry (Fisher scientific, CAT# PI-90091) washed with 10 ml of wash buffer (100 mM Hepes pH 7.5, 100 mM NaCl, 10% glycerol, 0.1 mM TPP, 1 mM MgSO4, 10 mM Imidazole, and 1 mM TCEP). Cobalt bead bed was washed with 15 ml of wash buffer 5 times and proteins were eluted with 1000 μl of elution buffer (100 mM Hepes pH 7.5, 100 mM NaCl, 10% glycerol, 0.1 mM TPP, 1 mM MgSO4, 200 mM Imidazole, and 1 mM TCEP). Protein samples were immediately buffer exchanged with spin concentrators (Satorius, CAT# VS0112) into storage buffer (100 mM Hepes pH 7.5, 100 mM NaCl, 10% glycerol, 0.1 mM TPP, 1 mM MgSO4, and 1 mM TCEP) and stored at 4° C. until kinetics characterization. Protein concentrations were determined using a Synergy H1 spectrophotometer (Biotek) by measuring absorbance at 280 nm using their calculated extinction coefficients with ExPASy ProtParam Tool.^33 All other buffers and salts were purchased from Fisher Scientific unless otherwise specified.
(§2) The kcat and KM values of selective KIVD mutants were measured for the substrates: C3, C5, isoC5, and C8. All substrates were dissolved in MilliQ H2O and pH was adjusted to 7.5 as necessary. Activity was measured at 0.005 mM to 10 mM substrates. The assay was performed in a 96-well half-area plate. Each reaction contains a final concentration of 0.5 mM NADH, 1 mM DTT, 0.1 mM TPP, 1 mM MgSO4, reaction buffer (100 mM Hepes, 100 mM NaCl, 10% glycerol, pH 7.5) and ADH (Sigma Aldrich, A7011, 10 U/ml for C3, C5 and C8 reactions, 500 U/ml for isoC5 reactions). A wide range of ketoacid decarboxylase concentrations, 4.5 nM-15 μM, were used according to the activity of each enzyme toward different substrates in order to perform steady state kinetics measurement over a period of an hour. Absorbance readings were taken every 1-minute at OD340 at 21° C. for 60 minutes using the Synergy H1. Kinetic parameters (kcat and KM) were determined by fitting initial velocity versus substrate concentration data to the Michaelis-Menten equation.

In the next data set the test system is CC(C)C(=O)C(=O)O. The method, then: as §1, §2
In another data set the test system is CCCC(=O)C(=O)O. The procedure:
as §1, §2

For a further data set, the system named is CCCCCCC(=O)C(=O)O. The procedure:
as §1, §2

In the case of “1OVM (1OVM_P23234), ketoacid decarboxylase, SEQ ID NO: 26 (Enterobacter cloacae)”, the Km (usually the substrate concentration at which the rate is half of its maximum) with CC(=O)C(=O)O was determined as 7.5 ± 0.1 mM; in the data set with CC(C)C(=O)C(=O)O, 6.1 ± 0.6 mM; in the data set with CCCC(=O)C(=O)O, 0.5 ± 0.1 mM; in the data set with CCCCCCC(=O)C(=O)O, 0.021 ± 0.001 mM. For the same substance, the catalytic constant (kcat) (usually the maximal rate divided by the concentration of active sites) worked out at 0.2 ± 0.01 s⁻¹ with CC(=O)C(=O)O, 7.8 ± 0.4 s⁻¹ in the data set on CC(C)C(=O)C(=O)O, 1 ± 0.1 s⁻¹ with CCCC(=O)C(=O)O and 1.7 ± 0.1 s⁻¹ in the data set on CCCCCCC(=O)C(=O)O. Further, the kcat/Km – broadly, the second-order rate constant that governs catalysis at low substrate concentration – stood at 32 ± 0.5 M⁻¹ s⁻¹ in the data set with CC(=O)C(=O)O, 1300 ± 130 M⁻¹ s⁻¹ in the data set with CC(C)C(=O)C(=O)O, 2100 ± 420 M⁻¹ s⁻¹ in the data set on CCCC(=O)C(=O)O and 80000 ± 4300 M⁻¹ s⁻¹ in the data set on CCCCCCC(=O)C(=O)O.
